{"source": "paper PMC3463355", "key": {"[1]": {"target": "N-parp (N-terminal half of PARP-1, amino acids 1-486) (human) (UniProt P09874)", "sequence (P09874 1-486)": "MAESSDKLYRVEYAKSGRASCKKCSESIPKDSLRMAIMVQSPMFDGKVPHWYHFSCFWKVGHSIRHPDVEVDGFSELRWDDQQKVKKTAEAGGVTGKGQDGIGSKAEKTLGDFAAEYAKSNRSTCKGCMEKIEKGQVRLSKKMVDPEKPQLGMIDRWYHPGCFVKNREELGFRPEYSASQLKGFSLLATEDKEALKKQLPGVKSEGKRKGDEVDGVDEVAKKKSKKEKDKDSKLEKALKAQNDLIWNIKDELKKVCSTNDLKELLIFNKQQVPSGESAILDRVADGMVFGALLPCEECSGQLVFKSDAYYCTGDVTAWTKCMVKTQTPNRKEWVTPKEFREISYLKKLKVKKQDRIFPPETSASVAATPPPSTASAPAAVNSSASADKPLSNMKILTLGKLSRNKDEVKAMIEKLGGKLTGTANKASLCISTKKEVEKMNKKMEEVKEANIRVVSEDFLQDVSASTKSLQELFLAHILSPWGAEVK", "experiment": "FRET or BRET"}, "[2]": {"target": "full-length human PARP-1 [change] (human) (UniProt P09874)", "sequence (P09874 whole entry V762A)": "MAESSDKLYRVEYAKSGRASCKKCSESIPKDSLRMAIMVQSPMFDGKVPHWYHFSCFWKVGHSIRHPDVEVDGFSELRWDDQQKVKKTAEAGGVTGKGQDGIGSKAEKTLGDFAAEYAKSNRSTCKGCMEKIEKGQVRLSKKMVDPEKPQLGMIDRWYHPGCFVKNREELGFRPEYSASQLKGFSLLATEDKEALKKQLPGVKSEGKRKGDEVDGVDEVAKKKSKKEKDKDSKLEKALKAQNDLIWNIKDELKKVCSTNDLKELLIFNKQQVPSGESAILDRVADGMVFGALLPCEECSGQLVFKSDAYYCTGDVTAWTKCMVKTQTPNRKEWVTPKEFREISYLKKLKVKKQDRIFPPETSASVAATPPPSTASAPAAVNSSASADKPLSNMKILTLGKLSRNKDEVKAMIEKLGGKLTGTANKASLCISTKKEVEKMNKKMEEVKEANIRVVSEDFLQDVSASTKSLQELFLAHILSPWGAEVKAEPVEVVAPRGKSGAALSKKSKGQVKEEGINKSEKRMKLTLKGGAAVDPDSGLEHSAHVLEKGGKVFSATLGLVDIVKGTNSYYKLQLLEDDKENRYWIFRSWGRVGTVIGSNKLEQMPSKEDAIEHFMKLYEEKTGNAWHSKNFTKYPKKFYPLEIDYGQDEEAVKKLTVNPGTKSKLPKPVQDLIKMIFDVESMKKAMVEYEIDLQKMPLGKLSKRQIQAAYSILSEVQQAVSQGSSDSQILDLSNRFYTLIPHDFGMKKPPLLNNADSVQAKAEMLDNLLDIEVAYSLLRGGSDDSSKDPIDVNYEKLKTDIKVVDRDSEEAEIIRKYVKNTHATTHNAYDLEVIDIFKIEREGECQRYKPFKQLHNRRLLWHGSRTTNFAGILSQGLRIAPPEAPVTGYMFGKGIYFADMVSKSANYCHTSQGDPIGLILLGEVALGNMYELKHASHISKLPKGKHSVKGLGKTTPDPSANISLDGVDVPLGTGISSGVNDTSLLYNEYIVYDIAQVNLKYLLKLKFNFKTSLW", "experiment": "FRET or BRET"}, "[3]": {"target": "nucleosome (of the N-parp/nucleosome complexes, data not shown)", "experiment": "SEC-MALS"}, "[4]": {"target": "Nuc165, unlabeled mononucleosome on 165-bp 601 DNA", "experiment": "SEC-MALS"}, "[5]": {"target": "Nuc207, mononucleosome on 207-bp 601 DNA as used for SEC-MALS", "experiment": "SEC-MALS"}, "[6]": {"target": "N-parp (Zn1-Zn3 and BRCT) (UniProt P09874)", "sequence (P09874 1-486)": "as the sequence (P09874 1-486) above", "experiment": "HI-FI FRET"}, "[7]": {"target": "PARP-1 (full-length) V762A (human) (UniProt P09874)", "sequence (P09874 whole entry V762A)": "as the sequence (P09874 whole entry V762A) above", "experiment": "HI-FI FRET"}}, "data": [{"substance": "Nuc165, mononucleosome on 165-bp 601 DNA, labeled with ATTO 647N at histone H4 [change] (complex)", "values": [{"measurement": "Kd", "setting": "[1]", "result": 57.8, "unit": "nM"}, {"measurement": "Kd", "setting": "[2]", "result": 2.2, "unit": "nM"}]}, {"substance": "Nuc207, mononucleosome on 207-bp 601 DNA, labeled with ATTO 647N at histone H4 [change] (complex)", "values": [{"measurement": "Kd", "setting": "[1]", "result": 48.8, "unit": "nM"}]}, {"substance": "Nuc147, mononucleosome on 147-bp 601 DNA, labeled with ATTO 647N at histone H4 [change] (complex)", "values": [{"measurement": "Kd", "setting": "[1]", "result": "> 500", "unit": "nM"}, {"measurement": "Kd", "setting": "[2]", "result": "> 500", "unit": "nM"}]}, {"substance": "N-parp (N-terminal half of PARP-1, amino acids 1-486) (from UniProt P09874 1-486) (domain or fragment)", "values": [{"measurement": "stoichiometry N", "setting": "[3]", "result": 1}]}, {"substance": "full-length human PARP-1 [change] (from UniProt P09874) (enzyme)", "values": [{"measurement": "stoichiometry N", "setting": "[4]", "result": 1}, {"measurement": "stoichiometry N", "setting": "[5]", "result": 1}]}, {"substance": "Nuc165", "values": [{"measurement": "Kd", "setting": "[6]", "result": 57.8, "unit": "nM"}, {"measurement": "Kd", "setting": "[7]", "result": 2.2, "unit": "nM"}]}, {"substance": "Nuc178", "values": [{"measurement": "Kd", "setting": "[6]", "result": 238, "unit": "nM"}, {"measurement": "Kd", "setting": "[7]", "result": 84.6, "unit": "nM"}]}, {"substance": "Nuc207", "values": [{"measurement": "Kd", "setting": "[6]", "result": 48.8, "unit": "nM"}, {"measurement": "Kd", "setting": "[7]", "result": 1, "unit": "nM"}]}]}
